Consider seven molecules from paper PMC3737412, “Species-Specific and Cross-Reactive IgG1 Antibody Binding to Viral Capsid Protein 1 (VP1) Antigens of Human Rhinovirus Species A, B and C” (PLoS ONE, 2013).

Assay in all cases: SEC
In general terms: Size exclusion chromatography separates by hydrodynamic size, large species first.

Series [1] has as its target Recombinant GST-fusion HRV-C3 VP1 with a C-terminal histidine tag (human rhinovirus C3 (HRV-C species)).
Series [2] deals with Recombinant GST-fusion HRV-A34 VP1 with a C-terminal histidine tag (human rhinovirus A34 (HRV-A species)).
Series [3] deals with Recombinant GST-fusion HRV-C5 VP1 with a C-terminal histidine tag (human rhinovirus C5 (HRV-C species)).
Series [4] addresses Recombinant GST-fusion human poliovirus (HPV) Sabin VP1 with a C-terminal histidine tag (human poliovirus Sabin).
For series [5], the target named is Recombinant GST-fusion HRV-B69 VP1 with a C-terminal histidine tag (human rhinovirus B69 (HRV-B species)).
The series “SEC” concerns the molecule itself.

The stoichiometry N is a count of units in the complex or per binding partner. Turning to “Recombinant GST-fusion HRV-C3 VP1 with a C-terminal histidine tag (natural protein)”, in series [1], the stoichiometry N was 10.

In the case of “Recombinant GST-fusion HRV-A34 VP1 with a C-terminal histidine tag (natural protein)”, the stoichiometry N in series [2] came out at 10.

“Recombinant GST-fusion HRV-C5 VP1 with a C-terminal histidine tag (natural protein)”: the stoichiometry N in series [3] worked out at 10.

On to “Recombinant GST-fusion human poliovirus (HPV) Sabin VP1 with a C-terminal histidine tag (natural protein)”, for which the stoichiometry N in series [4] is 10.

Take “Recombinant GST-fusion HRV-B69 VP1 with a C-terminal histidine tag (natural protein)”: in series [5], the stoichiometry N amounted to 10.

B1: Recombinant GST-fusion HRV-A1B VP1 with a C-terminal histidine tag (natural protein)
chain: SGPIEQNPVENYIDEVLNEVLVVPNIKESHHTTSNSAPLLDAAETGHTSNVQPEDAIETRYVMTSQTRDEMSIESFLGRSGCVHISRIKVDYNDYNGVNKNFTTWKITLQEMAQIRRKFELFTYVRFDSEVTLVPCIAGRGDDIGHVVMQYMYVPPGAPIPKTRNDFSWQSGTNMSIFWQHGQPFPRFSLPFLSIASAYYMFYDGYDGDNSSSKYGSIVTNDMGTICSRIVTEKQEHPVVITTHIYHKAKHTKAWCPRPPRAVPYTHSRVTNYVPKTGDVTTAIVPRASMKTV
Take B1: the “stoichiometry N” value in the series “SEC” was approximately 10.

B2: Recombinant GST-fusion HRV-B14 VP1 with a C-terminal histidine tag (natural protein)
chain: TVALTEGLGDELEEVIVEKTKQTVASISSGPKHTQKVPILTANETGATMPVLPSDSIETRTTYMHFNGSETDVECFLGRAACVHVTEIQNKDATGIDNHREAKLFNDWKINLSSLVQLRKKLELFTYVRFDSEYTILATASQPDSANYSSNLVVQAMYVPPGAPNPKEWDDYTWQSASNPSVFFKVGDTSRFSVPYVGLASAYNCFYDGYSHDDAETQYGITVLNHMGSMAFRIVNEHDEHKTLVKIRVYHRAKHVEAWIPRAPRALPYTSIGRTNYPKNTEPVIKKRKGDIKSY
Consider B2, for which the “stoichiometry N” value in “SEC” is approximately 10.
